The test system of series [1] is NarP (SO3982), phosphorylated (Shewanella oneidensis). Description: EMSA. The note with it: 100 mM Tris/HCl pH 7.4, 20 mM KCl, 10 mM MgCl2, 2 mM DTT, 10% glycerol, 15 C, 60 min, ~2 nM probe, 2 ug poly(dI·dC); 4.8% native PAGE. (In general: A gel shift assay detects complexes by their altered migration in electrophoresis.)
For series [2], the system named is NarP(D57N) (NarP#) (Shewanella oneidensis). Nature of the series: EMSA. The note with it: no binding up to 2 uM, 100 mM Tris/HCl pH 7.4, 20 mM KCl, 10 mM MgCl2, 2 mM DTT, 10% glycerol, 15 C, 60 min, ~2 nM probe, 2 ug poly(dI·dC), 4.8% native PAGE.

Take nrfA promoter fragment: the binding in series [1] is less than 0.25 µM; in series [2] (not phosphorylation-treated) it was more than 2 µM; in series [2] (treated with NarQ51-585 and ATP), more than 2 µM.

For the origin of these results see PMC3519889.
